Source: patent US11203773B2, “Designer ribosomes and methods of use thereof for incorporating non-standard amino acids into polypeptides” (Yale University, priority 2016, dated 2021)

Legend:
[1] = substrate: N[C@@H](Cc1ccc(O)cc1)C(=O)O; assay: Adenylation of α- and β-Tyr, coupled MESG/PNP pyrophosphate release assay; format: biochemical, E. coli; details: other: adenylation, TyrRS
Excerpt: ii. Adenylation of α- and β-Tyr catalyzed by E. coli TyrRS. These reactions were monitored spectrophotometrically in a coupled assay using inorganic pyrophosphatase, 2-amino-6-mercapto-7-methylpurine ribonucleoside (MESG), and purine nucleoside phosphorylase (PNP) to monitor the rate of pyrophosphate release, according to the manufacturer's instructions (Enzcheck Pyrophosphate assay kit, Thermo Fisher Scientific). The assay measures the increase in absorbance at 360 nm due to MESG phosphorolysis, and two molecules of MESG are consumed per pyrophosphate generated. This direct assay could be employed for TyrRS because the rate of ATP hydrolysis (in the absence of amino acid substrate) was insignificant, which was not the case for the other synthetases which therefore required the more laborious pyrophosphate exchange assay described above. […] For TyrRS, kcat is the turnover number (units of reciprocal time) since the change in absorbance can be directly correlated to concentration of pyrophosphate formed.

[2] = substrate: N[C@@H](Cc1ccc(O)cc1)C(=O)O; assay: Aminoacylation of 32P-tRNA with α- and β3-amino acids; format: biochemical, E. coli; details: other: aminoacylation, TyrRS
[3] = substrate: N[C@@H](Cc1ccccc1)C(=O)O; assay: purified protein, by the assay type; details: other: adenylation, PheRS; pH 7.0; 25.0 °C
Protocol: Adenylation of α- and β-Amino Acids Catalyzed by E. coli PheRS, GlyRS, MetRS, and GluRS. […] Briefly, assay mixtures (50 μL) assembled at 25° C. contained the requisite α- or β^3-amino acid substrate (between 5 μM and 5 mM) in 100 mM HEPES (pH 7.0) containing 100 mM KCl, 15 mM MgCl2, 2 mM ATP, 0.5 mM NaPPi, and 50 μCi [^32P]-NaPPi). Reactions were initiated upon addition of enzyme (10 nM MetRS, 10 nM PheRS, or 50 nM GlyRS; 100 nM GluRS for reactions with α-Glu or 1.13 μM GluRS for reactions with β^3-Glu), incubated for various times (10 sec to 10 min), and halted by adding a 5 μL reaction aliquot to 100 μL quenching solution (10% charcoal, 0.5% HCl). 50 μL of 200 mM NaPPi in 1.5 N HCl was then added to each quenched reaction to decrease nonspecific binding of pyrophosphate to the charcoal. Each quenched reaction was then filtered through Whatman filter paper (number 3), previously washed with washing solution (200 mM NaPPi in 1 N HCl) using a 96-well BIO-DOT® apparatus (BioRad). Each well of the apparatus was then washed four times with 200 μL aliquots of washing solution (by pipetting washing solution up and down at least 10 times per wash) to minimize nonspecific binding of pyrophosphate to charcoal. Each experimental well was paired with an analogous control well (no-enzyme control) that lacked enzyme; a single membrane contained time points for both α- and β^3-amino acid substrates and all no-enzyme controls. The membrane was allowed to dry and was protected with a sheet of Microseal B adhesive seals (Biorad) prior to exposure to a BAS Storage Phosphor screen. Screens were imaged on a Typhoon 9500FLA biomolecule imager and the signal intensity of each dot was quantified using ImageJ to determine the relative amount of [^32P]-ATP formed as a function of time (Ctime). Each raw value were corrected by subtracting the intensity of the dot corresponding to the appropriate no-enzyme control (Cblank) and the resulting corrected values of Ccorr (representing the relative amounts of ^32P-ATP formed) were plotted as a function of time to determine values of relative ^32P-ATP formed per minute. Those values were divided by the concentration of enzyme used, and the data was plotted as relative specific activity (^32P-ATP formed min^−1×μM^−1 enzyme) and fitted using Prism by performing nonlinear regression using the least squares method and Equation 1 to obtain RSA (relative specific activity) and KM values (Equation 1 and Table 2).
In Equation 1, v is the apparent relative specific activity (relative ^32P-ATP formed per minute) obtained at each substrate concentration divided by the enzyme concentration, RSA is the relative specific activity, S is the concentration of substrate, and KM is the Michaelis-Menten constant.

[4] = substrate: N[C@@H](Cc1ccccc1)C(=O)O; assay: Aminoacylation of 32P-tRNA with α- and β3-amino acids; format: biochemical, E. coli; details: other: aminoacylation, PheRS
[5] = substrate: CSCC[C@H](N)C(=O)O; assay: purified protein, by the assay type; details: MetRS

B1: E. coli TyrRS (Escherichia coli K-12) (protein)
chain: MASSNLIKQLQERGLVAQVTDEEALAERLAQGPIALYCGFDPTADSLHLGHLVPLLCLKRFQQAGHKPVALVGGATGLIGDPSFKAAERKLNTEETVQEWVDKIRKQVAPFLDFDCGENSAIAANNYDWFGNMNVLTFLRDIGKHFSVNQMINKEAVKQRLNREDQGISFTEFSYNLLQGYDFACLNKQYGVVLQIGGSDQWGNITSGIDLTRRLHQNQVFGLTVPLITKADGTKFGKTEGGAVWLDPKKTSPYKFYQFWINTADADVYRFLKFFTFMSIEEINALEEEDKNSGKAPRAQYVLAEQVTRLVHGEEGLQAAKRITECLFSGSLSALSEADFEQLAQDGVPMVEMEKGADLMQALVDSELQPSRGQARKTIASNAITINGEKQSDPEYFFKEEDRLFGRFTLLRRGKKNYCLICWK
notes: made in house; host or cells: E. coli BL21(DE3)
Question: B1 was tested. Which Km [1] did it give?
Answer: Its Km is 21.4 ± 6.9 µM.

Question: What about the kcat [1] of the same protein?
Answer: The kcat was 0.0203 ± 0.00183 s⁻¹.

Question: And the kcat/Km [1]?
Answer: The kcat/Km was 1000 ± 333 M⁻¹ s⁻¹.

Question: And the Km [2]?
Answer: The Km was 12.4 ± 4.8 µM.

Question: What about the kcat [2] of the same protein?
Answer: Its kcat is 1.18 ± 0.128 s⁻¹.

Question: And the kcat/Km [2]?
Answer: The kcat/Km was 95000 ± 38300 M⁻¹ s⁻¹.

B2: E. coli PheRS (Escherichia coli K-12) (protein)
chain: MSHLAELVASAKAAISQASDVAALDNVRVEYLGKKGHLTLQMTTLRELPPEERPAAGAVINEAKEQVQQALNARKAELESAALNARLAAETIDVSLPGRRIENGGLHPVTRTIDRIESFFGELGFTVATGPEIEDDYHNFDALNIPGHHPARADHDTFWFDTTRLLRTQTSGVQIRTMKAQQPPIRIIAPGRVYRNDYDQTHTPMFHQMEGLIVDTNISFTNLKGTLHDFLRNFFEEDLQIRFRPSYFPFTEPSAEVDVMGKNGKWLEVLGCGMVHPNVLRNVGIDPEVYSGFAFGMGMERLTMLRYGVTDLRSFFENDLRFLKQFK
notes: as for B1
Question: For B2, which Km [3] is on record?
Answer: The Km was 52.8 ± 25.8 µM.

Question: And the Km [4]?
Answer: The Km was 200.4 ± 78.8 µM.

B3: E. coli MetRS (Escherichia coli K-12) (protein)
chain: MTQVAKKILVTCALPYANGSIHLGHMLEHIQADVWVRYQRMRGHEVNFICADDAHGTPIMLKAQQLGITPEQMIGEMSQEHQTDFAGFNISYDNYHSTHSEENRQLSELIYSRLKENGFIKNRTISQLYDPEKGMFLPDRFVKGTCPKCKSPDQYGDNCEVCGATYSPTELIEPKSVVSGATPVMRDSEHFFFDLPSFSEMLQAWTRSGALQEQVANKMQEWFESGLQQWDISRDAPYFGFEIPNAPGKYFYVWLDAPIGYMGSFKNLCDKRGDSVSFDEYWKKDSTAELYHFIGKDIVYFHSLFWPAMLEGSNFRKPSNLFVHGYVTVNGAKMSKSRGTFIKASTWLNHFDADSLRYYYTAKLSSRIDDIDLNLEDFVQRVNADIVNKVVNLASRNAGFINKRFDGVLASELADPQLYKTFTDAAEVIGEAWESREFGKAVREIMALADLANRYVDEQAPWVVAKQEGRDADLQAICSMGINLFRVLMTYLKPVLPKLTERAEAFLNTELTWDGIQQPLLGHKVNPFKALYNRIDMRQVEALVEASKEEVKAAAAPVTGPLADDPIQETITFDDFAKVDLRVALIENAEFVEGSDKLLRLTLDLGGEKRNVFSGIRSAYPDPQALIGRHTIMVANLAPRKMRFGISEGMVMAAGPGGKDIFLLSPDAGAKPGHQVK
Question: Which Km ([5]; other: adenylation, pH 7.0, 25.0 °C) does the source give for B3 here?
Answer: The Km was 23.4 ± 8.0 µM.

Question: And the Km ([5]; other: aminoacylation)?
Answer: Its Km is 243.4 ± 55.7 µM.

Question: And the kcat ([5]; other: aminoacylation)?
Answer: Its kcat is 0.0233 s⁻¹.

Question: And the kcat/Km ([5]; other: aminoacylation)?
Answer: The kcat/Km was 100 M⁻¹ s⁻¹.
